Test results as given in paper PMC9482650, “Quantitative fragmentomics allow affinity mapping of interactomes” (Nature Communications, 2022).

Columns and labels:
Assay in all cases: holdup assay
Details in all cases: plain residues with an end cap or a label only (N-terminal biotin on a linker: (peg)3)
RIMS2, Q9UQ26 = target: RIMS2, Q9UQ26
MPDZ_3, O75970 = target: T1, MPDZ_3, O75970
T1 sequence (O75970 372-473, limits assumed, looked up): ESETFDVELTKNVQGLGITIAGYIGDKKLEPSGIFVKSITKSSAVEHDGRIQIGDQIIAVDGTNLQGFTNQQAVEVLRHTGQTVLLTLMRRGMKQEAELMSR

Inadl_7, Q8NI35 = target: Inadl_7, Q8NI35
TJP3_1, O95049 = target: T2, TJP3_1, O95049
T2 sequence (O95049 6-103, limits assumed, looked up): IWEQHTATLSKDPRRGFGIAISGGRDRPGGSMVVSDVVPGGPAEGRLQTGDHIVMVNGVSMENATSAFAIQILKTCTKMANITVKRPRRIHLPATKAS

TJP3_3, O95049 = target: T3, TJP3_3, O95049
T3 sequence (O95049 375-456, limits assumed, looked up): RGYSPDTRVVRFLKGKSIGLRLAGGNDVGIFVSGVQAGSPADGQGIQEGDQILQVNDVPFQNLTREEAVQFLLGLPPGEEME

GIPC1, O14908 = target: T4, GIPC1, O14908
T4 sequence (O14908 128-223, limits assumed, looked up): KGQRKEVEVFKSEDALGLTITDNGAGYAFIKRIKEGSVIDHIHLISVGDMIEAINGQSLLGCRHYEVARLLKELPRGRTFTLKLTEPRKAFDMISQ

MAGI3_5, Q5TCQ9 = target: MAGI3_5, Q5TCQ9
TJP3_2, O95049 = target: T5, TJP3_2, O95049
T5 sequence (O95049 190-282, limits assumed, looked up): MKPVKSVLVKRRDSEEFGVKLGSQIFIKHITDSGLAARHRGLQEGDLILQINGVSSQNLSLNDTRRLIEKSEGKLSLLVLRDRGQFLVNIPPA

AHNAK2, Q8IVF2 = target: AHNAK2, Q8IVF2
PDZD9, Q8IXQ8 = target: PDZD9, Q8IXQ8
SHANK2, Q9UPX8 = target: T6, SHANK2, Q9UPX8
T6 sequence (Q9UPX8 621-730, limits assumed, looked up): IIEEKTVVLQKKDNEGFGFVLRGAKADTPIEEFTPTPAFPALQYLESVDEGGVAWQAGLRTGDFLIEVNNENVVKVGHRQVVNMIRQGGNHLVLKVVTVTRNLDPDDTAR

PDZD2_1, O15018 = target: T7, PDZD2_1, O15018
T7 sequence (O15018 80-192, limits assumed, looked up): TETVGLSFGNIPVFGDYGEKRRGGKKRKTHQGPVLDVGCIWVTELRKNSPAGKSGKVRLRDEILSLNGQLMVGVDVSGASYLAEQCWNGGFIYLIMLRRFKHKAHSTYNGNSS

MAST3, O60307 = target: MAST3, O60307
MPDZ_13, O75970 = target: T8, MPDZ_13, O75970
T8 sequence (O75970 1982-2070, limits assumed, looked up): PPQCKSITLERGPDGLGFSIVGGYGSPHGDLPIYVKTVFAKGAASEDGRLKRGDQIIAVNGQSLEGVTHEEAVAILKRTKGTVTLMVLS

DLG2_1, Q15700 = target: DLG2_1, Q15700
PTPN13_4, Q12923 = target: T9, PTPN13_4, Q12923
T9 sequence (Q12923 1783-1878, limits assumed, looked up): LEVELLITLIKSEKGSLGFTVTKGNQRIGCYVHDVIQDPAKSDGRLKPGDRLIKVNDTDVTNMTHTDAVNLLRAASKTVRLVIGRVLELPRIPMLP

MPP5, Q8N3R9 = target: T10, MPP5, Q8N3R9
T10 sequence (Q8N3R9 251-346, limits assumed, looked up): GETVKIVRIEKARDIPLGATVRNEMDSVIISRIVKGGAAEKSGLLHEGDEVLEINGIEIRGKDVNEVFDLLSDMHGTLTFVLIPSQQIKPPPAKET

USH1C_1, Q9Y6N9 = target: T11, USH1C_1, Q9Y6N9
T11 sequence (Q9Y6N9 82-179, limits assumed, looked up): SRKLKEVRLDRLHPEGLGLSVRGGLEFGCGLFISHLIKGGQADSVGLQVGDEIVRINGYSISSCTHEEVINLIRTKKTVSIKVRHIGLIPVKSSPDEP

NHERF3_2, Q5T2W1 = target: T12, NHERF3_2, Q5T2W1
T12 sequence (Q5T2W1 129-225, limits assumed, looked up): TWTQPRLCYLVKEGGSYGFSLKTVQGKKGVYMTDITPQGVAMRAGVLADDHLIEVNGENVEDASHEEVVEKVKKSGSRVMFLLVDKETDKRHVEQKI

RGS12, O14924 = target: T13, RGS12, O14924
T13 sequence (O14924 17-108, limits assumed, looked up): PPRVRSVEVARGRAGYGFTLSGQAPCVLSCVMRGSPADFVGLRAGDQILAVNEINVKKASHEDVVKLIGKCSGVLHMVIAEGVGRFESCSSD

APBA3_2, O96018 = target: T14, APBA3_2, O96018
T14 sequence (O96018 480-570, limits assumed, looked up): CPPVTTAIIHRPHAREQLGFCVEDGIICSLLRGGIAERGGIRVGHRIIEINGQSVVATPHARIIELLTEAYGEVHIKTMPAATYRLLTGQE

PARD6B, Q9BYG5 = target: T15, PARD6B, Q9BYG5
T15 sequence (Q9BYG5 152-260, limits assumed, looked up): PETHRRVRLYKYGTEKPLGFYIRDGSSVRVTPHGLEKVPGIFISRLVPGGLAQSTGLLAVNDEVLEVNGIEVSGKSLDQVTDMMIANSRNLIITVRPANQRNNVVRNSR

SNX27, Q96L92 = target: SNX27, Q96L92

Measured: pKd

MAGI3_5, Q5TCQ9, sequence (Q5TCQ9 847-941): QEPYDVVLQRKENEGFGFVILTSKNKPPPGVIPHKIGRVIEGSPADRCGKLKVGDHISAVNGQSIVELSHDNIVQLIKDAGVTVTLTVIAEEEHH
MAST3, O60307, sequence (O60307 945-1048): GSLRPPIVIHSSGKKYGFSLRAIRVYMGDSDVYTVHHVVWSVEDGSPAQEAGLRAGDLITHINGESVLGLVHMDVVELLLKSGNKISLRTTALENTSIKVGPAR
Inadl_7, Q8NI35, sequence (Q8NI35 1219-1332): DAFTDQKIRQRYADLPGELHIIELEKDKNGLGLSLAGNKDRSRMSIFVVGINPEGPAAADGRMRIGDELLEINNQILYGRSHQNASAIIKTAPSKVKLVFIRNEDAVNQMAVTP
PDZD9, Q8IXQ8, sequence (Q8IXQ8 23-120): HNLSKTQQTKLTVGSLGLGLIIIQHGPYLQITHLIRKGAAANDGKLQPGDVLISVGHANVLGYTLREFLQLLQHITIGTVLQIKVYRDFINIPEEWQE
RIMS2, Q9UQ26, sequence (Q9UQ26 637-758): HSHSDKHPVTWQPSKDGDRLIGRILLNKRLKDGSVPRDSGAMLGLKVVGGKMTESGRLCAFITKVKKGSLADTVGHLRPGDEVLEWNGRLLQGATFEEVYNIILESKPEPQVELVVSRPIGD
AHNAK2, Q8IVF2, sequence (Q8IVF2 108-193): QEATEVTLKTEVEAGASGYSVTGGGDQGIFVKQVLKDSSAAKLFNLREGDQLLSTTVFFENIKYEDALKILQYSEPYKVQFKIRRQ

YDEPTTTTSVPL [SARS-Cov2-3a, P0DTC3]
below the threshold: all assays above
